Results from paper PMC10273338, “HspB8 interacts with BAG3 in a “native‐like” conformation forming a complex that displays chaperone‐like activity” (Protein Science : A Publication of the Protein Society, 2023).

B1: Josephin domain of ataxin-3 (domain or fragment, UniProt P54252 1-180, looked up)
chain: MESIFHEKQEGSLCAQHCLNNLLQGEYFSPVELSSIAHQLDEEERMRMAEGGVTSEDYRTFLQQPSGNMDDSGFFSIQVISNALKVWGLELILFNSPEYQRLRIDPINERSFICNYKEHWFTVRKLGKQWFNLNSLLTGPELISDTYLALFLAQLQQEGYSIFVVKGDLPDCEADQLLQM
notes: cloned in pET21-a; likely residues 1-182 of human ataxin-3 (surmised). pET21-a may add a C-terminal His6 tag; also called JD; source: E. coli BL21 Tuner (DE3) pLacI, purified as previously described (Bonanomi et al., 2015)
B2: HspB8 (natural protein, UniProt Q9UJY1 1-196, looked up)
chain: MADGQMPFSCHYPSRLRRDPFRDSPLSSRLLDDGFGMDPFPDDLTASWPDWALPRLSSAWPGTLRSGMVPRGPTATARFGVPAEGRTPPPFPGEPWKVCVNVHSFKPEELMVKTKDGYVEVSGKHEEKQQEGGIVSKNFTKKIQLPAEVDPVTVFASLSPEGLLIIEAPQVPPYSTFGESSFNNELPQDSQEVTCT
notes: HspB8, small heat shock protein; gene in pGEX-6P-1, provided by Serena Carra; source: E. coli BL21-CodonPlus(DE3)-RIL, purified (Glutathione Sepharose, PreScission cleavage on the resin, Superose 12 SEC); not shown: GST, N-terminal, cleaved
B3: HspB8-BAG3 complex (complex)
chain 1: B2 chain
chain 2: not shown

Assays:
HspB8 = molecular target: B2; experiment: SPR; BIACORE X100; JD amine-coupled to a CM5 chip (3000 RU); single cycle kinetics at 25°C, 10 uL/min, 10 mM HEPES pH 7.4, 150 mM NaCl, 3 mM EDTA, 0.005% P20; Langmuir 1:1 fit, complex assumed to bind JD 1:1; conditions: both partners purified
HspB8-BAG3 complex = molecular target: B3; experiment: as above; conditions: both partners purified
[1] = molecular target: T1, BAG3 (Bcl-2 associated athanogene protein 3) (human, UniProt O95817 1-575); experiment: as above; conditions: both partners purified
T1 construct: BAG3, human; no removal of the tag is described; source: E. coli M15 (pREP4), purified (HisPur Cobalt resin, Superose 12 SEC)

[2] = molecular target: T1, BAG3 (Bcl-2 associated athanogene …); experiment: SPR; BIACORE X; BAG3 amine-coupled to a CM5 chip (3400 RU); running buffer 10 mM HEPES pH 7.4, 150 mM NaCl, 3 mM EDTA, 0.005% P20; 10 uL/min; Langmuir 1:1 fit; conditions: both partners purified
[3] = molecular target: B1; experiment: cell-based or functional assay
[4] = molecular target: T1, BAG3 (Bcl-2 associated athanogene …); experiment: SPR; BIACORE X; HspB8 amine-coupled to a CM5 chip (7400 RU); running buffer 10 mM HEPES pH 7.4, 150 mM NaCl, 3 mM EDTA, 0.005% P20; 10 uL/min; Langmuir 1:1 fit; conditions: both partners purified

HspB8-BAG3 complex, sequence (O95817 whole entry, one chain of several): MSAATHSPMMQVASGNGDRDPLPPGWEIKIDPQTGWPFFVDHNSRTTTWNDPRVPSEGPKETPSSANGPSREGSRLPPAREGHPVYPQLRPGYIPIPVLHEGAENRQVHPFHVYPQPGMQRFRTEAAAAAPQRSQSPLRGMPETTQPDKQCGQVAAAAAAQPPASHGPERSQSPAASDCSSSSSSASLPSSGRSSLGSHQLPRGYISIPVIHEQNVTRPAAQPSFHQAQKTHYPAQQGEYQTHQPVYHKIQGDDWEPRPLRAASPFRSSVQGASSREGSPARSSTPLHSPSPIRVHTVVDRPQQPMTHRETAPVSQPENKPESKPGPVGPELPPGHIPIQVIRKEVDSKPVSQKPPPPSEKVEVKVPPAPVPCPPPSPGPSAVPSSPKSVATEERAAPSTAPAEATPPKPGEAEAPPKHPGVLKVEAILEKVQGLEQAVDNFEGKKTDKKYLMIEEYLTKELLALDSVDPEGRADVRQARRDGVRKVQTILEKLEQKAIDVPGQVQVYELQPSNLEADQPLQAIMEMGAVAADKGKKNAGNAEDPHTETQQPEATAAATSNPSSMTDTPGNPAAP
T1 sequence (O95817 whole entry): as the sequence (O95817 whole entry, one chain of several) above

Binder: B1
Ka (HspB8): 120000 M⁻¹
Kd (HspB8): 8100 nM
koff (HspB8): 0.0006 s⁻¹
kon (HspB8): 74 M⁻¹ s⁻¹
Ka (HspB8-BAG3 complex): 1.4e+07 M⁻¹
Kd (HspB8-BAG3 complex): 73 nM
koff (HspB8-BAG3 complex): 0.00024 s⁻¹
kon (HspB8-BAG3 complex): 3300 M⁻¹ s⁻¹
Ka [1]: 190000 M⁻¹
Kd [1]: 5400 nM
koff [1]: 0.0014 s⁻¹
kon [1]: 260 M⁻¹ s⁻¹

Binder: B2
Ka [2]: 2.2e+08 M⁻¹
Kd [2]: 4.5 nM
koff [2]: 0.00056 s⁻¹
kon [2]: 130000 M⁻¹ s⁻¹
inhibition of JD aggregation (ThT fluorescence, 10 uM JD at 37°C with HspB8 at different molar ratios; 20% at JD:HspB8 1:0.093, maximum at 4:1) [3]: 35%
Ka [4]: 4.2e+08 M⁻¹
Kd [4]: 2.4 nM
koff [4]: 0.00022 s⁻¹
kon [4]: 93000 M⁻¹ s⁻¹

Binder: B3
inhibition of JD aggregation (ThT fluorescence, 10 uM JD at 37°C with the HspB8-BAG3 complex at different ratios; maximum at JD:complex 1:0.5) [3]: 40%
